Reference: patent US20240262894A1

Tests used:
[1] = target: F protein of RSV B-type clinical isolates (on virus) (respiratory syncytial virus B-type clinical isolates); assay: cell-based or functional assay
[2] = target: pre-fusion F protein DS-Cav1 of RSV A2 strain (respiratory syncytial virus A2 strain); assay: SPR (Biacore), F protein immobilised on CM5 chip, Fab as analyte
[3] = target: post-fusion F protein (FΔFP) of RSV A2 strain (respiratory syncytial virus A2 strain) (UniProt P03420); assay: as above

Q: Which IC50 (ng/mL), neutralization of RSV B-type clinical isolates on Hep2 cells, flow cytometry [1] does the source give for Palivizumab (antibody) here?
A: Its IC50 (ng/mL), neutralization of RSV B-type clinical isolates on Hep2 cells, flow cytometry is 1410 ng/mL.

Q: Which results are given for Palivizumab Fab?
A: Kd [2]: 11.4 nM; Kd [3]: 4.4 nM
